B1: Azoarcus group I ribozyme (parent)
chain: GUGCCUUGCGCCGGGAAACCACGCAAGGGAUGGUGUCAAAUUCGGCGAAACCUAAGCGCCCGCCCGGGCGUAUGGCAACGCCGAGCCAAGCUUCGGCGCCUGCGCCGAUGAAGGUGUAGAGACUAGACGGCACCCACCUAAGGCAAACGCUAUGGUGAAGGCAUAGUCCAGGGAGUGGCGAAAGUCACACAAACCGG

Variants of: B1
Assay: reverse-splicing fitness (ratio to wild type); higher = more active; in vitro selection; Mg2+ level not given
Summary of the method: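 An in vitro group I ribozyme library with randomized positions was T7-transcribed and gel-purified. In triplicate, 10 pmol RNA in EPPS pH 7.5 was reacted with 50 pmoles of a 30-nt RNA substrate for 1 h at 37 °C across several added MgCl2 levels (1–48 mM), then stopped with EDTA. Products were reverse transcribed from a substrate-complementary primer, PCR-amplified and sequenced (HiSeq 4000). Fitness is a variant's read proportion after selection over that before, normalised to wild type.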
Variant GUGCCUUGCGCCGGGAAACCACGCAAGGGAUGGUGUCAAAUUCGGCGAAACCUAAGCGCCCGCCCGGGCGUAUGGCAACGCGGAGCCAAGCUUCGGCGCCUGCGCCGAUGGAGGUGUAGUGACUAGACGGCACCCACCUAAGGCAAACGUUAUGGUGAAGGCAUAGUCAAGGGAGCGGCGAAAGUCACACAAACCGG [C82G A111G A120U C150U C169A U176C] has a reverse-splicing fitness of 0.00376. For GUGCCUUGCGCCGGGAAACCACGCAAGGGAUGGUGUCAAAUUCGGCGAAACCUAAGCGCCCGCCCGGGCGUAUGGCAACGCGGAGCCAAGCUUCGGCGCCUGCGCCGAUGGAGGUGUAGUGACUAGACGGCACCCACCUAAGGCAAACGUUAUGGUGAAGGCAUAGUCAAGGGAGGGGCGAAAGUCACACAAACCGG [C82G A111G A120U C150U C169A U176G], the reverse-splicing fitness was 0.00204. With GUGCCUUGCGCCGGGAAACCACGCAAGGGAUGGUGUCAAAUUCGGCGAAACCUAAGCGCCCGCCCGGGCGUAUGGCAACGCGGAGCCAAGCUUCGGCGCCUGCGCCGAUGGAGGUGUAGUGACUAGACGGCACCCACCUAAGGCAAACGUUAUGGUGAAGGCAUAGUCAAGGGAGAGGCGAAAGUCACACAAACCGG [C82G A111G A120U C150U C169A U176A] the reverse-splicing fitness was 0.00519. Variant GUGCCUUGCGCCGGGAAACCACGCAAGGGAUGGUGUCAAAUUCGGCGAAACCUAAGCGCCCGCCCGGGCGUAUGGCAACGCGGAGCCAAGCUUCGGCGCCUGCGCCGAUGGAGGUGUAGUGACUAGACGGCACCCACCUAAGGCAAACGGUAUGGUGAAGGCAUAGUCUAGGGAGGGGCGAAAGUCACACAAACCGG [C82G A111G A120U C150G C169U U176G] has a reverse-splicing fitness of 0.00278. Work on GUGCCUUGCGCCGGGAAACCACGCAAGGGAUGGUGUCAAAUUCGGCGAAACCUAAGCGCCCGCCCGGGCGUAUGGCAACGCGGAGCCAAGCUUCGGCGCCUGCGCCGAUGGAGGUGUAGUGACUAGACGGCACCCACCUAAGGCAAACGGUAUGGUGAAGGCAUAGUCUAGGGAGAGGCGAAAGUCACACAAACCGG [C82G A111G A120U C150G C169U U176A] yielded a reverse-splicing fitness of 0.00421. Work on GUGCCUUGCGCCGGGAAACCACGCAAGGGAUGGUGUCAAAUUCGGCGAAACCUAAGCGCCCGCCCGGGCGUAUGGCAACGCGGAGCCAAGCUUCGGCGCCUGCGCCGAUGGAGGUGUAGUGACUAGACGGCACCCACCUAAGGCAAACGGUAUGGUGAAGGCAUAGUCUAGGGAGCGGCGAAAGUCACACAAACCGG [C82G A111G A120U C150G C169U U176C] yielded a reverse-splicing fitness of 0.00723. GUGCCUUGCGCCGGGAAACCACGCAAGGGAUGGUGUCAAAUUCGGCGAAACCUAAGCGCCCGCCCGGGCGUAUGGCAACGCGGAGCCAAGCUUCGGCGCCUGCGCCGAUGGAGGUGUAGUGACUAGACGGCACCCACCUAAGGCAAACGGUAUGGUGAAGGCAUAGUCAAGGGAGCGGCGAAAGUCACACAAACCGG [C82G A111G A120U C150G C169A U176C] gave a reverse-splicing fitness of 0.00831. Work on GUGCCUUGCGCCGGGAAACCACGCAAGGGAUGGUGUCAAAUUCGGCGAAACCUAAGCGCCCGCCCGGGCGUAUGGCAACGCGGAGCCAAGCUUCGGCGCCUGCGCCGAUGGAGGUGUAGUGACUAGACGGCACCCACCUAAGGCAAACGGUAUGGUGAAGGCAUAGUCAAGGGAGAGGCGAAAGUCACACAAACCGG [C82G A111G A120U C150G C169A U176A] yielded a reverse-splicing fitness of 0.00788. GUGCCUUGCGCCGGGAAACCACGCAAGGGAUGGUGUCAAAUUCGGCGAAACCUAAGCGCCCGCCCGGGCGUAUGGCAACGCGGAGCCAAGCUUCGGCGCCUGCGCCGAUGGAGGUGUAGUGACUAGACGGCACCCACCUAAGGCAAACGGUAUGGUGAAGGCAUAGUCAAGGGAGGGGCGAAAGUCACACAAACCGG [C82G A111G A120U C150G C169A U176G] showed a reverse-splicing fitness of 0.00267. In the case of GUGCCUUGCGCCGGGAAACCACGCAAGGGAUGGUGUCAAAUUCGGCGAAACCUAAGCGCCCGCCCGGGCGUAUGGCAACGCGGAGCCAAGCUUCGGCGCCUGCGCCGAUGGAGGUGUAGUGACUAGACGGCACCCACCUAAGGCAAACGUUAUGGUGAAGGCAUAGUCCAGGGAGAGGCGAAAGUCACACAAACCGG [C82G A111G A120U C150U U176A], the reverse-splicing fitness is reported as 0.0115. In the case of GUGCCUUGCGCCGGGAAACCACGCAAGGGAUGGUGUCAAAUUCGGCGAAACCUAAGCGCCCGCCCGGGCGUAUGGCAACGCGGAGCCAAGCUUCGGCGCCUGCGCCGAUGGAGGUGUAGUGACUAGACGGCACCCACCUAAGGCAAACGGUAUGGUGAAGGCAUAGUCUAGGGAGUGGCGAAAGUCACACAAACCGG [C82G A111G A120U C150G C169U], the reverse-splicing fitness is reported as 0.0064. Variant GUGCCUUGCGCCGGGAAACCACGCAAGGGAUGGUGUCAAAUUCGGCGAAACCUAAGCGCCCGCCCGGGCGUAUGGCAACGCGGAGCCAAGCUUCGGCGCCUGCGCCGAUGGAGGUGUAGUGACUAGACGGCACCCACCUAAGGCAAACGGUAUGGUGAAGGCAUAGUCAAGGGAGUGGCGAAAGUCACACAAACCGG [C82G A111G A120U C150G C169A] has a reverse-splicing fitness of 0.00761. Variant GUGCCUUGCGCCGGGAAACCACGCAAGGGAUGGUGUCAAAUUCGGCGAAACCUAAGCGCCCGCCCGGGCGUAUGGCAACGCGGAGCCAAGCUUCGGCGCCUGCGCCGAUGGAGGUGUAGUGACUAGACGGCACCCACCUAAGGCAAACGGUAUGGUGAAGGCAUAGUCGAGGGAGUGGCGAAAGUCACACAAACCGG [C82G A111G A120U C150G C169G] has a reverse-splicing fitness of 0.00678. GUGCCUUGCGCCGGGAAACCACGCAAGGGAUGGUGUCAAAUUCGGCGAAACCUAAGCGCCCGCCCGGGCGUAUGGCAACGCGGAGCCAAGCUUCGGCGCCUGCGCCGAUGGAGGUGUAGUGACUAGACGGCACCCACCUAAGGCAAACGGUAUGGUGAAGGCAUAGUCCAGGGAGUGGCGAAAGUCACACAAACCGG [C82G A111G A120U C150G] showed a reverse-splicing fitness of 0.00849. In the case of GUGCCUUGCGCCGGGAAACCACGCAAGGGAUGGUGUCAAAUUCGGCGAAACCUAAGCGCCCGCCCGGGCGUAUGGCAACGCGGAGCCAAGCUUCGGCGCCUGCGCCGAUGGAGGUGUAGUGACUAGACGGCACCCACCUAAGGCAAACGUUAUGGUGAAGGCAUAGUCCAGGGAGUGGCGAAAGUCACACAAACCGG [C82G A111G A120U C150U], the reverse-splicing fitness is reported as 0.0348.

Reference: the RNAGym collection of RNA variant scans (doi:10.1093/molbev/msab373)
